{
  "source": "paper PMC2173703",
  "about": "(The Journal of Cell Biology, 2003)",
  "molecules": {"B1": {"name": "GST-talin head, wild type (human talin1 1–435) (domain or fragment)", "chain": "MVALSLKISIGNVVKTMQFEPSTMVYDACRIIRERIPEAPAGPPSDFGLFLSDDDPKKGIWLEAGKALDYYMLRNGDTMEYRKKQRPLKIRMLDGTVKTIMVDDSKTVTDMLMTICARIGITNHDEYSLVRELMEEKKEEITGTLRKDKTLLRDEKKMEKLKQKLHTDDELNWLDHGRTLREQGVEEHETLLLRRKFFYSDQNVDSRDPVQLNLLYVQARDDILNGSHPVSFDKACEFAGFQCQIQFGPHNEQKHKAGFLDLKDFLPKEYVKQKGERKIFQAHKNCGQMSEIEAKVRYVKLARSLKTYGVSFFLVKEKMKGKNKLVPRLLGITKECVMRVDEKTKEVIQEWNLTNIKRWAASPKSFTLDFGDYQDGYYSVQTTEGEQIAQLIAGYIDIILKKKKSKDHFGLEGDEESTMLEDSVSPKKSTVLQQQ"}},
  "key": {"[1]": {"tested_on": "tyrosine phosphorylation of PIPKIγ661 (Src family kinases)", "format": "cell-based", "conditions": "HEK293T cells, 1 μM for 30 min at 37°C; Fig. 2 A"}, "[2]": {"tested_on": "integrin–talin interaction", "conditions": "ref Martel et al., 2001; cited from earlier work"}, "[3]": {"target": "T1, fluorescein-labeled Y649-phosphorylated PIPKIγ661 peptide", "T1 peptide": "fluorescein-CDERSWVYSPLH[pY]SAR", "test": "fluorescence polarisation"}, "[4]": {"target": "T2, fluorescein-labeled Y644-phosphorylated PIPKIγ661 peptide", "T2 peptide": "fluorescein-CDERSWV[pY]SPLHYSAR", "test": "fluorescence polarisation"}, "[5]": {"target": "B1", "test": "pull-down"}, "[6]": {"target": "B1", "test": "pull-down", "remark": "listed apart in the source"}},
  "note": "Read-outs that look alike come from different tables or passages of the source. Where no end group is shown, it is not given here. [ ]: non-standard residue; d: D form. pY = N[C@@H](Cc1ccc(OP(=O)(O)O)cc1)C(=O)O; pT = C[C@@H](OP(=O)(O)O)[C@H](N)C(=O)O",
  "data": [
    {"molecule": "CC(C)(C)n1nc(-c2ccc(Cl)cc2)c2c(N)ncnc21", "note": "[PP2]", "values": [
      {"measurement": "inhibition of basal and FAK-induced tyrosine phosphorylation of PIPKIγ661", "setting": "[1]", "result": "inhibited"}
    ]},
    {"molecule": "Phosphatidylinositol 4,5-bisphosphate [PI4,5P2]", "values": [
      {"measurement": "increase of the integrin–talin binding affinity", "setting": "[2]", "result": "~10", "unit": "fold"}
    ]},
    {"molecule": "B1", "values": [
      {"measurement": "fold increase in binding affinity against the nonphosphorylated peptide", "setting": "[3]", "result": "~15", "unit": "fold"},
      {"measurement": "fold increase in binding affinity against the nonphosphorylated peptide", "setting": "[4]", "result": "~15", "unit": "fold"}
    ]},
    {"molecule": "CMNAKWD[pT]GENPIYKSA", "note": "[β1-integrin peptide β1InpT]", "values": [
      {"measurement": "binding result", "setting": "[5]", "result": "binds"}
    ]},
    {"molecule": "CDERSWVYSPLHYSAR", "note": "[PIPKIγ661 peptide PN (nonphosphorylated)]", "values": [
      {"measurement": "binding result", "setting": "[6]", "result": "binds"}
    ]},
    {"molecule": "CMNAKWDTGENPIYKSA", "note": "[β1-integrin peptide β1InPN (nonphosphorylated)]", "values": [
      {"measurement": "binding result", "setting": "[5]", "result": "binds"}
    ]}
  ]
}
